Patent publication US20250352667A1

Columns and labels:
[1] = target: KEAP1 (wild-type full-length), His-tagged (human) (UniProt Q14145); assay: AlphaScreen; FLAG-NRF2 wt isoform 1 38.4 nM, His-KEAP1 150 nM; Rep 1; positive control for I86V
[2] = target: KEAP1 (wild-type full-length), His-tagged (human) (UniProt Q14145); assay: AlphaScreen; 38.4 nM FLAG-NRF2, 150 nM His-KEAP1; signal against NRF2 only; control for I28V
[3] = target: KEAP1 (wild-type full-length), His-tagged (human) (UniProt Q14145); assay: AlphaScreen; 307.2 nM FLAG-NRF2, 150 nM His-KEAP1; Rep 3; control for I86V
[4] = target: KEAP1 (wild-type full-length), His-tagged (human) (UniProt Q14145); assay: AlphaScreen; 76.8 nM FLAG-NRF2, 150 nM His-KEAP1; Rep 3; control for I86V
[5] = target: KEAP1 (wild-type full-length), His-tagged (human) (UniProt Q14145); assay: AlphaScreen; 9.6 nM FLAG-NRF2, 150 nM His-KEAP1; Rep 2; control for I28V
[6] = target: KEAP1 (wild-type full-length), His-tagged (human) (UniProt Q14145); assay: AlphaScreen; 9.6 nM FLAG-NRF2, 150 nM His-KEAP1; Rep 2; control for I86V
[7] = target: KEAP1 (wild-type full-length), His-tagged (human) (UniProt Q14145); assay: AlphaScreen; 2.4 nM FLAG-NRF2, 150 nM His-KEAP1; Rep 1; control for I28V
[8] = target: KEAP1 (wild-type full-length), His-tagged (human) (UniProt Q14145); assay: AlphaScreen; 19.2 nM FLAG-NRF2, 150 nM His-KEAP1; Rep 1; control for I86V
[9] = target: KEAP1 (wild-type full-length), His-tagged (human) (UniProt Q14145); assay: AlphaScreen; 9.6 nM FLAG-NRF2, 150 nM His-KEAP1; Repeat 2 (same value as in Table 26)
[10] = target: KEAP1 (wild-type full-length), His-tagged (human) (UniProt Q14145); assay: AlphaScreen; 38.4 nM FLAG-NRF2, 150 nM His-KEAP1 (same value as in Table 26)
[11] = target: KEAP1 (wild-type full-length), His-tagged (human) (UniProt Q14145); assay: AlphaScreen; 307.2 nM FLAG-NRF2, 150 nM His-KEAP1; Rep 2; control for I28V
[12] = target: KEAP1 (wild-type full-length), His-tagged (human) (UniProt Q14145); assay: AlphaScreen; 2.4 nM FLAG-NRF2, 150 nM His-KEAP1; Rep 2; control for I28V
[13] = target: KEAP1 (wild-type full-length), His-tagged (human) (UniProt Q14145); assay: AlphaScreen; NRF2 wt isoform 1 38.4 nM, KEAP1 150 nM; set as the 100 % reference for I86V
[14] = target: KEAP1 (wild-type full-length), His-tagged (human) (UniProt Q14145); assay: AlphaScreen; NRF2 wt isoform 1 76.8 nM, KEAP1 150 nM; signal against NRF2-only control; control for Q75R
[15] = target: KEAP1 (wild-type full-length), His-tagged (human) (UniProt Q14145); assay: AlphaScreen; mean over 9.6, 19.2 and 38.4 nM NRF2; 150 nM His-KEAP1; against wild-type NRF2 isoform 1 = 100%
[16] = target: KEAP1 (wild-type full-length), His-tagged (human) (UniProt Q14145); assay: AlphaScreen; FLAG-NRF2 I86V 1228.8 nM, His-KEAP1 150 nM; Rep 3
[17] = target: KEAP1 (wild-type full-length), His-tagged (human) (UniProt Q14145); assay: AlphaScreen; FLAG-NRF2 I86V 153.6 nM, His-KEAP1 150 nM; Rep 2
[18] = target: KEAP1 (wild-type full-length), His-tagged (human) (UniProt Q14145); assay: AlphaScreen; NRF2 I86V 4.8 nM, KEAP1 150 nM; signal against NRF2-only control
[19] = target: KEAP1 (wild-type full-length), His-tagged (human) (UniProt Q14145); assay: AlphaScreen; FLAG-NRF2 I86V 76.8 nM, His-KEAP1 150 nM; Rep 1
[20] = target: KEAP1 (wild-type full-length), His-tagged (human) (UniProt Q14145); assay: AlphaScreen; FLAG-NRF2 Q75R 19.2 nM, His-KEAP1 150 nM; Repeat 2
[21] = target: KEAP1 (wild-type full-length), His-tagged (human) (UniProt Q14145); assay: AlphaScreen; NRF2 Q75R 38.4 nM, KEAP1 150 nM; relative to wild-type NRF2 isoform 1 (100 %)
[22] = target: KEAP1 (wild-type full-length), His-tagged (human) (UniProt Q14145); assay: AlphaScreen; NRF2 Q75R 38.4 nM, KEAP1 150 nM; signal against NRF2-only control
[23] = target: KEAP1 (wild-type full-length), His-tagged (human) (UniProt Q14145); assay: AlphaScreen; FLAG-NRF2 Q75R 2.4 nM, His-KEAP1 150 nM; Rep 2
[24] = target: KEAP1 (wild-type full-length), His-tagged (human) (UniProt Q14145); assay: AlphaScreen; NRF2 Q75R 9.6 nM, KEAP1 150 nM; relative to wild-type NRF2 isoform 1 (100 %)
[25] = target: KEAP1 (wild-type full-length), His-tagged (human) (UniProt Q14145); assay: AlphaScreen; NRF2 Q75R 19.2 nM, KEAP1 150 nM; signal against NRF2-only control
[26] = target: KEAP1 (wild-type full-length), His-tagged (human) (UniProt Q14145); assay: AlphaScreen; FLAG-NRF2 Q75R 38.4 nM, His-KEAP1 150 nM; Repeat 1
[27] = target: KEAP1 (wild-type full-length), His-tagged (human) (UniProt Q14145); assay: AlphaScreen; NRF2 Q75R 9.6 nM, KEAP1 150 nM; signal against NRF2-only control

KEAP1 (wild-type full-length), His-tagged (human), sequence (Q14145 2-624 limits assumed): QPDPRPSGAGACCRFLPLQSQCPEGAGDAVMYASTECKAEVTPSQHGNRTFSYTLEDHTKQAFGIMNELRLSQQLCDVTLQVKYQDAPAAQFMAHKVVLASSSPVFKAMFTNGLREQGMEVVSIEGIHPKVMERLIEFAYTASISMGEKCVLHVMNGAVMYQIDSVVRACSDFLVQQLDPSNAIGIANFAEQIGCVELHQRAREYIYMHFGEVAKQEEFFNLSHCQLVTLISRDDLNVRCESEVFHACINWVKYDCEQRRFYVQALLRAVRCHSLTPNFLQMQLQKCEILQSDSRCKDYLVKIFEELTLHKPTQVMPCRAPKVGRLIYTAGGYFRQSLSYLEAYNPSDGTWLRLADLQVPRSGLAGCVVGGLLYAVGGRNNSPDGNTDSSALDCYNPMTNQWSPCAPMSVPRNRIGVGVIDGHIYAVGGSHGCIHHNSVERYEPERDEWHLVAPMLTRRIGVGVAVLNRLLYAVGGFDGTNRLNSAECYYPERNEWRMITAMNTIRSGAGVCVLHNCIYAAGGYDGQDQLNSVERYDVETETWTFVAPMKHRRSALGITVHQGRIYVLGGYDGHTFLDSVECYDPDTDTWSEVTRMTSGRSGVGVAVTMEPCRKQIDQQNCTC

B1: NRF2 isoform 1 (wild-type full-length), FLAG-tagged (protein)
chain: MMDLELPPPGLPSQQDMDLIDILWRQDIDLGVSREVFDFSQRRKEYELEKQKKLEKERQEQLQKEQEKAFFAQLQLDEETGEFLPIQPAQHIQSETSGSANYSQVAHIPKSDALYFDDCMQLLAQTFPFVDDNEVSSATFQSLVPDIPGHIESPVFIATNQAQSPETSVAQVAPVDLDGMQQDIEQVWEELLSIPELQCLNIENDKLVETTMVPSPEAKLTEVDNYHFYSSIPSMEKEVGNCSPHFLNAFEDSFSSILSTEDPNQLTVNSLNSDATVNTDFGDEFYSAFIAEPSISNSMPSPATLSHSLSELLNGPIDVSDLSLCKAFNQNHPESTAEFNDSDSGISLNTSPSVASPEHSVESSSYGDTLLGLSDSEVEELDSAPGSVKQNGPKTPVHSSGDMVQPLSPSQGQSTHVHDAQCENTPEKELPVSPGHRKTPFTKDKHSSRLEAHLTRDELRAKALHIPFPVEKIINLPVVDFNEMMSKEQFNEAQLALIRDIRRRGKNKVAAQNCRKRKLENIVELEQDLDHLKDEKEKLLKEKGENDKSLHLLKKQLSTLYLEVFSMLRDEDGKPYSPSEYSLQQTRDGNVFLVPKSKKPDVKKN
A-counts (NRF2 plus KEAP1) [1]: 3100 A-counts | S/N [2]: 3.6 | A-counts [3]: 2910 A-counts | A-counts [4]: 2880 A-counts | A-counts [5]: 1640 A-counts | A-counts [6]: 2720 A-counts | A-counts [7]: 622 A-counts | A-counts [8]: 3300 A-counts | A-counts [9]: 1640 A-counts | S/N [10]: 3.6 | A-counts [11]: 1780 A-counts | A-counts [12]: 628 A-counts | Binding Percentage [13]: 100% | S/N [14]: 2.5

B2: NRF2 isoform 1 (I28V full-length), FLAG-tagged (protein)
chain: MMDLELPPPGLPSQQDMDLIDILWRQDVDLGVSREVFDFSQRRKEYELEKQKKLEKERQEQLQKEQEKAFFAQLQLDEETGEFLPIQPAQHIQSETSGSANYSQVAHIPKSDALYFDDCMQLLAQTFPFVDDNEVSSATFQSLVPDIPGHIESPVFIATNQAQSPETSVAQVAPVDLDGMQQDIEQVWEELLSIPELQCLNIENDKLVETTMVPSPEAKLTEVDNYHFYSSIPSMEKEVGNCSPHFLNAFEDSFSSILSTEDPNQLTVNSLNSDATVNTDFGDEFYSAFIAEPSISNSMPSPATLSHSLSELLNGPIDVSDLSLCKAFNQNHPESTAEFNDSDSGISLNTSPSVASPEHSVESSSYGDTLLGLSDSEVEELDSAPGSVKQNGPKTPVHSSGDMVQPLSPSQGQSTHVHDAQCENTPEKELPVSPGHRKTPFTKDKHSSRLEAHLTRDELRAKALHIPFPVEKIINLPVVDFNEMMSKEQFNEAQLALIRDIRRRGKNKVAAQNCRKRKLENIVELEQDLDHLKDEKEKLLKEKGENDKSLHLLKKQLSTLYLEVFSMLRDEDGKPYSPSEYSLQQTRDGNVFLVPKSKKPDVKKN
Average Binding [15]: 69.8%

B3: NRF2 isoform 1 (I86V full-length), FLAG-tagged (protein)
chain: MMDLELPPPGLPSQQDMDLIDILWRQDIDLGVSREVFDFSQRRKEYELEKQKKLEKERQEQLQKEQEKAFFAQLQLDEETGEFLPVQPAQHIQSETSGSANYSQVAHIPKSDALYFDDCMQLLAQTFPFVDDNEVSSATFQSLVPDIPGHIESPVFIATNQAQSPETSVAQVAPVDLDGMQQDIEQVWEELLSIPELQCLNIENDKLVETTMVPSPEAKLTEVDNYHFYSSIPSMEKEVGNCSPHFLNAFEDSFSSILSTEDPNQLTVNSLNSDATVNTDFGDEFYSAFIAEPSISNSMPSPATLSHSLSELLNGPIDVSDLSLCKAFNQNHPESTAEFNDSDSGISLNTSPSVASPEHSVESSSYGDTLLGLSDSEVEELDSAPGSVKQNGPKTPVHSSGDMVQPLSPSQGQSTHVHDAQCENTPEKELPVSPGHRKTPFTKDKHSSRLEAHLTRDELRAKALHIPFPVEKIINLPVVDFNEMMSKEQFNEAQLALIRDIRRRGKNKVAAQNCRKRKLENIVELEQDLDHLKDEKEKLLKEKGENDKSLHLLKKQLSTLYLEVFSMLRDEDGKPYSPSEYSLQQTRDGNVFLVPKSKKPDVKKN
A-counts (NRF2 plus KEAP1) [16]: 1620 A-counts | A-counts (NRF2 plus KEAP1) [17]: 2580 A-counts | S/N [18]: 2.9 | A-counts (NRF2 plus KEAP1) [19]: 2810 A-counts

B4: NRF2 isoform 1 (Q75R full-length), FLAG-tagged (protein)
chain: MMDLELPPPGLPSQQDMDLIDILWRQDIDLGVSREVFDFSQRRKEYELEKQKKLEKERQEQLQKEQEKAFFAQLRLDEETGEFLPIQPAQHIQSETSGSANYSQVAHIPKSDALYFDDCMQLLAQTFPFVDDNEVSSATFQSLVPDIPGHIESPVFIATNQAQSPETSVAQVAPVDLDGMQQDIEQVWEELLSIPELQCLNIENDKLVETTMVPSPEAKLTEVDNYHFYSSIPSMEKEVGNCSPHFLNAFEDSFSSILSTEDPNQLTVNSLNSDATVNTDFGDEFYSAFIAEPSISNSMPSPATLSHSLSELLNGPIDVSDLSLCKAFNQNHPESTAEFNDSDSGISLNTSPSVASPEHSVESSSYGDTLLGLSDSEVEELDSAPGSVKQNGPKTPVHSSGDMVQPLSPSQGQSTHVHDAQCENTPEKELPVSPGHRKTPFTKDKHSSRLEAHLTRDELRAKALHIPFPVEKIINLPVVDFNEMMSKEQFNEAQLALIRDIRRRGKNKVAAQNCRKRKLENIVELEQDLDHLKDEKEKLLKEKGENDKSLHLLKKQLSTLYLEVFSMLRDEDGKPYSPSEYSLQQTRDGNVFLVPKSKKPDVKKN
A-counts (NRF2 plus KEAP1) [20]: 1280 A-counts | Binding Percentage [21]: 73.4% | S/N [22]: 2.4 | A-counts (NRF2 plus KEAP1) [23]: 566 A-counts | Binding Percentage [24]: 72.4% | S/N [25]: 2.5 | A-counts (NRF2 plus KEAP1) [26]: 1200 A-counts | S/N [27]: 2.4
